Among the data in a protein production outcome set (Wang et al. 2014) are protein production values, retold here.

The data set is described as follows: label from the status in PepcDB records.
Take “MINSVGVVRKEAENCNCLQVFFVSGSFKVDSVEAKKKEENFRETLRDMANSKYEYVKSFELEDEVMLPNLMVVRIDGRDFSRFSQVHEFEKPNDETALNLMNSCSAAVLEEFPDIIFAYGYSDEYSFVFKKTSRFYQRRASKILSLVASFFAAVYVTKWKEFFPQRKLLYAPSFSSKVVSCASAEVLQAYLAWRQQDCHANNQYDTCFWMLVKSGKSVSETQEILKDTQKQQKNELLFQKFGINYKTLPELFRQGSCLFKKKVEETVKHDENGNPVKRLRRKAVFVHSENIAGRSFWNEQPSLYNDLGHFTKDIGKIEPDFIRSFQFENKLLPLTWVVVRIDGCHFHRFSDVHEFEKPNDEQALKLMNSCAVAVLEEFEDIHFAYGVSDEYSFVLKKESELYKRQSSKIISAVASFFTSTYVLQWGEFFPHKELKYPPSFDGRAVCYPTYNILLDYLAWRQVDCHINNQYNTCFWMLVKSGKNKTQSQDYLKGTQTREKNELLSRQFGIEYNSLPVIFRMGSSVFRLKEAENGVVSGKKLEGEVVVDHCNIIERCFWEEHLHILSYS”: the protein production entry was “failed”.

With “MCRSGSRCCPPIKLRVACVVAASILTARAGTYAIAACYVAALRVMDQRIAMSLQVLGAGLGRTGTLSLKFALEHLGFGPCYHATEVAANMRTALPLWNAAERGAADWSAIFAGYRSSTDHPGCYYWRQLIEVYPQAKVVLTVRDPDSWFESVTQTILMPGRKSTFVGPEGETFSTFLKQQMGGRSQDRAFMVDYFNRWNQAVIDTVPADRLLVFSARQGWAPLCSFLGVPVPHKPYPHLHARPRLRWFTRGLRLPDDVAARERHVREYLEYLREDLFG”, the protein production result is “failed”. As for “MLSNILPLSIGAIFGTTARWLLNLAVPASLSPATGNLFANWTGALLIGIFAETVSHPQWKLLLITGFFGSLTTLSGFSLETVTLLQSNRPASALANIFLHTAGSLLLTWLGLKIGTAVK”, the protein production entry was “failed”. For the sequence “MGTDTAQARPTDEAAERRREQRGWYFYDWACSVYSTSVLTVFLGPYLTSVAKSAADADGYVHPLGVPVRAGSFFAYSVSLSVIVAVVVMPLVGAAADRTGRKKPLLAVTAYVGAAATAGMFFLDGDRYLLGGVLLLVANAAQAVSMMLYNSYLPQIAPPEERDAVSSRGWAFGYAAGALVLIANLVLFLAHDSFGVSESTAVRICLASAGLWWGAFTLIPLKRLRDRGSPVKEITAPGPRRLAATVRDMRRHPLTLSFLLAYLIYNDGIQTVISQASVYGSEELGLSQSTLIVAVLLVQVLAVGGALGMGRLARTYGARRTILGSLVAWTVTLGAGYFLPAGAPFWFFVLASGIGLVLGGSQALSRSLFSHLVPAGKEAEYFSAYEMSDRGMSWLGPLLFGLTYQLTGSYRDAIISLVAFFVVGFVLLARVPVRQAVRDAGNSVPERI”, the protein production result is reported as “failed”. For the sequence “MAGLLSGLPMTSALVMLFLSLEQGAVFASMAVPGALAGLAAIQATYLFYFLVTRRVSAVAGCVLALALYGATAFLMNLSGSLALSILFTLLMVALIIVATSKQTPPAAAPYVALPRWVIPMRMLTATLLLLAITASATWLGPVVSGLLAPIPVIAWPLAVFVHVQGGRYELAAIIRGNAIGAVGVLSFYLTLRYSLLQWGALLSITTAVLLAVVVTAVLARLLAKR”, the protein production result was “failed”. The result for “MKEYLTRSNISYFSIGSGTPIIFLHGLSLDKQSTCLFFEPLSNVGQYQRIYLDLPGMGNSDPISPSTSDNVLETLIEAIEEIIGARRFILYGHSYGGYLAQAIAFHLKDQTLGVFLTCPVITADHSKRLTGKHINILEEDINPVENKEYFADFLSMNVIINNQAWHDYQNLIIPGLQKEDKTFIDQLQNNYSFTFEEKLKNINYQFPFKIMVGRNDQVVGYQEQLKLINHNENGEIVLLNRTGHNLMIDQREAVGFHFDLFLDELNSNN” reads “not failed”; that for “MWYSTVRNPSIALIKQGYHILAEYNLVKEELKNIYAIPSYACGLHWFGVIFVHSGIYAGSVFRFSILLPENFPADISLPTVVFSTEVLHPHICPQNKTLDLAHFLNEWRKDEHHIWHVLRYIQAIFADPEGSICTGQSSSGDLVIMDEVRNMNALNMLAKSRPEYIKRVQEQAILSRNLIYDRPPTEDPHYIIVEPYCAERHLKFMDQLKSPCWKEATSMDCSQPSEYLGHIDSSRQLDEEEANQVEKLHRGRIPEHQREESEVSL”, “failed”.

“MKETPRASGATNFILVGLGVIIALLGLLLAAGGVKLAGLGGSWYFLIGGLAMAIAGVLIARRKKAGAWLYAVFLVGTAIWALIDAGLVFWPLFSRLFMFGAIGMVVALVYPLLARANGASAGRGAYGVAGVMAVVLVVAVGNMFVAHPSVAPTGKGPGMTPVETGKEQKDWAHYGNTEGGSRFAALDQINRDNVNKLKVAWTYQTGDVAISDGNGAEDQLTPLQIGSKVFICTPHNNLIALDADTGKELWKNEINAQSKVWQRCRGMAYFDATAAIAQPTQPNSSPITGVSVAAGANCQRRLLTNTIDGRLIAVDADTGEFCQGFGNNGQVDLKAGLGDVPDSYYQLSSAPLMAGTTVVVGGRVADNVQTDMPGGVIRGFDVITGEMRWAFDPGNPEDRQAPQGDKTYVRSTPNSWAPMSYDPAMNTVFLPMGSSSTDIYGVERSKLDHTYGASVLALDATTGNQKWVFQTVHNDLWDFDLPMQPSLIDFTKDDGQSVPAVVIGTKAGQIYVLDRATGKPLTQVDEVPVKPSNIPNEPYSPTQPKSVGMPQIGAQTLTESDMWGATPYDQLLCRIDFKKMRYDGLYTAPGTDLSLSFPGSLGGMNWGSISTDPVHGFIFVNDMRLGLWIQMIPSQNKGGAASGGEALNTGMGAVPLKGTPYAVNKNRFLSVAGIPCQAPPFGTLTAIDMKTRQVAWQVPVGTVEDTGPLGIRMHLPIKIGLPTLGGTLSTQGGLVFIAGTQDFYLRAYDSSNGNEIWKARLPVGSQGGPMTYVSPKTGKQYVVITAGGARQSTDRGDYVISYALP”: the protein production result is reported as “failed”. As for “MPNKVKKRHLLDYSIFIPYLILSIVGLIMVYSSTSALQVMKGFSPTSFVINQVAFWVVGLVAMFFIYKMKTSVFQNRSFIMFAIAVITVMVLAVRIPGIGKEINGARGWIEIGGFSMQPAEYLKIMVVWYLSYILARRQKTINGGMDQFKQAAGRPLMLVFVLIALVAIQPDFGNAAILTLITIVMVLASGINYMYTYLVGGLGILGSITAIQLLIMSKGKIFPARYQYIYNRFAVFKNPFLDERNLGHQLANSYYAISNGGWFGKGLGNSVQKKGFLPEAHTDFIFAITLEELGIIGGLAILGLLMFMIARIILVGVRSKKPFNSLMCIGIGTMLLIQVFINVGGITGIIPLTGITFPFLSQGGNSLLIISIAVAFVLNISADETRQKLENEYYLSLEQNQ”, the entry is “failed”; as for “KALAHAKNDSVAVATDDLKEGEEIQVAFLDNNEKTKITTAEVIPLGHKISLKDIKKGENVIEYGEVIGAATKDIKRGEHVHIHNIKSLRW”, “failed”. As for “MKILFIKLSALGDVLASTPLFASTKAEHPDWFVGHVVARPYADATRNNAHVDAQFVVDSPLSKGLAEKIGVAVGIWRYVLRERYDIAVVLHRSFVLQLICRLALVKKVVGYEGPFSFILNHSIPFSMRGNRSNLELRLLKSAGIIRDEKKKLRFDIDFGNVDPSRLRALPDAFIAVNAGGGNADAHAANKLWPAEHYGALIKQLPLPAVMLGHGAADERIRDRVAATGATFVDLIGKTNLDETAVVLRRSSLYVGNDSALLYLAASLGVTTIGIYGPTDPAAFSPLGANNLWLSGKTSCAPCYSSFDGIGGRMYTCADNICMKAVTVESVSERIHAALHQDQNLQVAGPDVVGSGQGGAASEAGDRARAHARAGHQAVGDGGFAVPVSRRPPVGARVSGRDD”, the entry is “failed”.

For “MTLTIPNAPGSSGYLDMFPERRMSYFGNSYILGLTVTAGIGGLLFGYDTGVISGALLYIKDDFEVVKQSSFLQVYNVSSFTSSKLETIVSMALVGAMIGAAAGGWINDYYGRKKATLFADVVFAAGAIVMAAAPDPYVLISGRLLVGLGVGVASVTAPVYIAEASPSEVRGGLVSTNVLMITGGQFLSYLVNSAFTQVPGTWRWMLGVSGVPAVIQFILMLFMPESPRWLFMKNRKAEAIQVLARTYDISRLEDEIDHLSAAEEEEKQRKRTVGYLDVFRSKELRLAFLAGAGLQAFQQFTGINTVMYYSPTIVQMAGFHSNQLALFLSLIVAAMNAAGTVVGIYFIDHCGRKKLALSSLFGVIISLLILSVSFFKQSETSSDGGLYGWLAVLGLALYIVFFAPGMGPVPWTVNSEIYPQQYRGICGGMSATVNWISNLIVAQTFLTIAEAAGTGMTFLILAGIAVLAVIFVIVFVPETQGLTFSEVEQIWKERAYGNISGWGSSSDSNNMEGLLEQGSQS”, the protein production entry is given as “not failed”.
